Results published in patent US5906819.

How the values were obtained:
[1] = target: T1, myosin light chain (chicken) (UniProt P02612)
T1 sequence: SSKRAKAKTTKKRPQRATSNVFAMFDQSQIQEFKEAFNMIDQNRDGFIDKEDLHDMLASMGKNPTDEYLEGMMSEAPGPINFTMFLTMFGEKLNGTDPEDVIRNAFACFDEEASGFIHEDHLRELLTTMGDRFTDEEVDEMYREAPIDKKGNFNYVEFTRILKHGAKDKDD

[2] = target: bovine Rho-kinase (bovine)
[3] = target: bovine Rho-kinase (bovine); remark: listed apart in the source
[4] = target: bovine Rho-kinase (bovine); remark: listed apart in the source

Chain of myosin light chain kinase (P11799 935-1906 limits assumed): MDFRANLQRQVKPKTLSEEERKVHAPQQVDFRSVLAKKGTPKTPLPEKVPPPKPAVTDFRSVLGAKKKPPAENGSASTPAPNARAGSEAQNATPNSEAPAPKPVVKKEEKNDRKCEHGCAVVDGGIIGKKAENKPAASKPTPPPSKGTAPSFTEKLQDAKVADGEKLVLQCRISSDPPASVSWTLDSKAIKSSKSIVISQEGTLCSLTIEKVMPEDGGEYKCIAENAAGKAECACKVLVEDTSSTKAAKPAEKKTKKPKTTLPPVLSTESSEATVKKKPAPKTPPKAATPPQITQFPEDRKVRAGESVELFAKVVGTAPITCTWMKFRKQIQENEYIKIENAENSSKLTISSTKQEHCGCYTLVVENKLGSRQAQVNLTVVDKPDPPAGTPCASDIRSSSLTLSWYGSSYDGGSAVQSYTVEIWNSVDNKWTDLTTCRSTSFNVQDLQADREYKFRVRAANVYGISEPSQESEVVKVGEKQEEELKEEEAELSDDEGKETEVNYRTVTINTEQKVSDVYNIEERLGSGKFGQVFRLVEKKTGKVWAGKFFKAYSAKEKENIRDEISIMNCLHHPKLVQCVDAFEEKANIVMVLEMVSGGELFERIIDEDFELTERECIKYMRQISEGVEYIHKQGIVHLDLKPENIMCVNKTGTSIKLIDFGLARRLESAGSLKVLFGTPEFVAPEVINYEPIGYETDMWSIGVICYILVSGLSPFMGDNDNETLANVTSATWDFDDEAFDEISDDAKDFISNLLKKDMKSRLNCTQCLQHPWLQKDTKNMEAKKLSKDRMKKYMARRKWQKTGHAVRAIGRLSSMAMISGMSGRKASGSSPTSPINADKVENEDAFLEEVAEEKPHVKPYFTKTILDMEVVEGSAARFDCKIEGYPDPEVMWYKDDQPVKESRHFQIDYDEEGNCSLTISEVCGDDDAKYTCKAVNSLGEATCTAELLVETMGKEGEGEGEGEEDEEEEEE

With bovine Rho-kinase (enzyme) the phosphorylation of the myosin light chain of intact myosin (mol of phosphate into 1 mol) (intact myosin (chicken)) was 1, the apparent Km for myosin light chain, in the absence of GTPγS·GST-RhoA [1] was 12.6 µM and the apparent Km for myosin light chain, in the presence of GTPγS·GST-RhoA [1] was 2.6 µM.

Work on “myosin light chain kinase (from UniProt P11799-2) (enzyme)” yielded an apparent Km for myosin light chain [1] of 52.1 µM.

With GTPγS·GST-RhoA (from UniProt P61586) the autophosphorylation of bovine Rho-kinase [2] was 2 times, the phosphorylation of rat myosin-binding subunit by bovine Rho-kinase [3] was 15 times and the phosphorylation of MBS-C by bovine Rho-kinase [4] was 5 times.
